This is an account of results in publication PMC11992676.

The data set has as its target T1, TRF1 (recombinant, in-house purified) (UniProt P54274).
T1 sequence: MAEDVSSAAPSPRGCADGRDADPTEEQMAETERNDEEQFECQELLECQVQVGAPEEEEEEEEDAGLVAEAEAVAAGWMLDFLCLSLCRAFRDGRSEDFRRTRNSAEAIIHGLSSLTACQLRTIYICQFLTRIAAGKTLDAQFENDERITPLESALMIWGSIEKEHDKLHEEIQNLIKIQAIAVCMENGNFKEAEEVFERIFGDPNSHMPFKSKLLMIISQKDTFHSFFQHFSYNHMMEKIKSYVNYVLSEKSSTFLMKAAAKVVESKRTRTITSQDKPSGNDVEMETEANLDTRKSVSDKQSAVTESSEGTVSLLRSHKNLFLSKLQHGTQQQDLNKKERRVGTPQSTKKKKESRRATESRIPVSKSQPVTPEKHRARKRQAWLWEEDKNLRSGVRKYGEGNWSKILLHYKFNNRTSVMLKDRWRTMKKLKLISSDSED
The data set can be described thus: EMSA. The settings on record: 2 mM Mg2+, 50 mM Tris-Cl pH 8.0, 2 mM MgCl2, 150 mM KCl, 0.5 mM DTT, 10% glycerol, 5 nM oligonucleotide, 30 min room temperature, 1% agarose gel in 1x TBE at 4 C. For orientation: A gel shift assay detects complexes by their altered migration in electrophoresis.

Take “GACCATGCTTAGGGTTAGGGTTAGGGTTAGGGTTATCATACAA (double strand) [TelDNA]”: the binding signal (scale: fold) was found to be 1.

For “GACCATGCTTATCCCCATTTGTATTATCCCCATTTCATACAAA (double strand) [Non-TelDNA]”, the binding signal (fold lower binding than TelDNA) amounted to 5.

In the case of “GACCAUGCUUAGGGUUAGGGUUAGGGUUAGGGUUAUCAUACAA / TTGTATGATAACCCTAACCCTAACCCTAACCCTAAGCATGGTC [Telomeric DNA:RNA hybrid]”, the binding signal (fold lower affinity than TelDNA) (strand 1 is RNA, strand 2 is DNA) amounted to 7.
